In the data set the test system is Escherichia coli TOP10. In words: shrunken log2 fold change of peptide-encoding DNA abundance (4.5 h post-induction vs induction); higher = less antimicrobial activity (less host growth inhibition). Particulars: time post-induction: 4.5 h; library: site-saturation at positions 5, 18, 19, 20.
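Note: peptides expressed intracellularly from a pBAD plasmid library in pooled LB shake-flask culture, induced with 0.3% L-arabinose, DNA abundance read by NGS, three biological replicates, DESeq2 with apeglm shrinkage.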

With RRIRGRPPRLPRPRPRPSEAPRP, the “shrunken log2 fold change” value worked out at 0.848.

With RRIRDRPPRLPRPRPRPMNAPRP, the “shrunken log2 fold change” value is -0.0396.

In the case of RRIRMRPPRLPRPRPRPVEKPRP, the “shrunken log2 fold change” value amounted to 1.01.

With RRIRQRPPRLPRPRPRPMGWPRP, the “shrunken log2 fold change” value came out at 0.379.

In the case of RRIRHRPPRLPRPRPRPTEIPRP, the “shrunken log2 fold change” value is 0.0223.

Consider RRIRQRPPRLPRPRPRPLFSPRP, for which the “shrunken log2 fold change” value is -0.258.

In the case of RRIRKRPPRLPRPRPRPDCIPRP, the “shrunken log2 fold change” value worked out at 0.75.

For the sequence RRIRLRPPRLPRPRPRPVWQPRP, the “shrunken log2 fold change” value is -0.096.

Regarding RRIRARPPRLPRPRPRPPKWPRP, the “shrunken log2 fold change” value worked out at 0.732.

On to RRIRDRPPRLPRPRPRPCCDPRP, for which the “shrunken log2 fold change” value was 0.655.

Regarding RRIRFRPPRLPRPRPRPPLKPRP, the “shrunken log2 fold change” value turned out to be 0.266.

Regarding RRIRKRPPRLPRPRPRPYTYPRP, the “shrunken log2 fold change” value is -0.119.

In the case of RRIRARPPRLPRPRPRPDISPRP, the “shrunken log2 fold change” value is 0.277.

As to RRIRFRPPRLPRPRPRPPLCPRP, the “shrunken log2 fold change” value is 0.282.

For RRIRRRPPRLPRPRPRPWSAPRP, the “shrunken log2 fold change” value stood at 0.131.

For the sequence RRIRKRPPRLPRPRPRPSEDPRP, the “shrunken log2 fold change” value is -0.0464.

Regarding RRIRPRPPRLPRPRPRPACEPRP, the “shrunken log2 fold change” value was found to be 0.0148.

For the sequence RRIRIRPPRLPRPRPRPSMRPRP, the “shrunken log2 fold change” value was -0.000106.

As to RRIRERPPRLPRPRPRPDENPRP, the “shrunken log2 fold change” value was -0.0287.

As to RRIRVRPPRLPRPRPRPTTTPRP, the “shrunken log2 fold change” value was found to be 0.1.

With RRIRRRPPRLPRPRPRPCKRPRP, the “shrunken log2 fold change” value was found to be 0.0349.

Regarding RRIRKRPPRLPRPRPRPHRLPRP, the “shrunken log2 fold change” value worked out at 0.164.

With RRIRWRPPRLPRPRPRPTFEPRP, the “shrunken log2 fold change” value came out at 0.13.

Take RRIRPRPPRLPRPRPRPHRCPRP: the “shrunken log2 fold change” value was -0.299.

On to RRIRIRPPRLPRPRPRPNAFPRP, for which the “shrunken log2 fold change” value was -0.0665.

As for RRIRNRPPRLPRPRPRPMDYPRP, the “shrunken log2 fold change” value was 0.0678.

As to RRIRPRPPRLPRPRPRPAEEPRP, the “shrunken log2 fold change” value was 0.2.

Take RRIRCRPPRLPRPRPRPLAKPRP: the “shrunken log2 fold change” value amounted to 1.69.

Turning to RRIRDRPPRLPRPRPRPHRDPRP, the “shrunken log2 fold change” value is -0.0968.

Regarding RRIRCRPPRLPRPRPRPDKTPRP, the “shrunken log2 fold change” value was -0.0581.

As for RRIRWRPPRLPRPRPRPKRTPRP, the “shrunken log2 fold change” value came out at 0.668.

RRIRPRPPRLPRPRPRPTAMPRP: the “shrunken log2 fold change” value was 0.0577.

Regarding RRIRWRPPRLPRPRPRPQPGPRP, the “shrunken log2 fold change” value worked out at 0.221.

As for RRIRQRPPRLPRPRPRPTEHPRP, the “shrunken log2 fold change” value was -0.00172.

With RRIRGRPPRLPRPRPRPELFPRP, the “shrunken log2 fold change” value is 1.63.

With RRIRGRPPRLPRPRPRPTNMPRP, the “shrunken log2 fold change” value amounted to 0.316.

For RRIRSRPPRLPRPRPRPKKHPRP, the “shrunken log2 fold change” value is -0.0966.

Turning to RRIRDRPPRLPRPRPRPCLLPRP, the “shrunken log2 fold change” value was determined as 0.491.

As to RRIRKRPPRLPRPRPRPCNFPRP, the “shrunken log2 fold change” value is -0.132.

Regarding RRIRWRPPRLPRPRPRPPANPRP, the “shrunken log2 fold change” value was determined as 0.629.

Take RRIRKRPPRLPRPRPRPRNDPRP: the “shrunken log2 fold change” value turned out to be 0.352.

Take RRIRDRPPRLPRPRPRPTKNPRP: the “shrunken log2 fold change” value was determined as 0.0799.

For the sequence RRIRVRPPRLPRPRPRPLWRPRP, the “shrunken log2 fold change” value stood at 0.293.

As for RRIRMRPPRLPRPRPRPYKGPRP, the “shrunken log2 fold change” value is -0.046.

Turning to RRIRRRPPRLPRPRPRPSYEPRP, the “shrunken log2 fold change” value is -0.33.

As for RRIRDRPPRLPRPRPRPEDTPRP, the “shrunken log2 fold change” value worked out at 0.509.

RRIRNRPPRLPRPRPRPAYLPRP: the “shrunken log2 fold change” value was -0.284.

Take RRIRNRPPRLPRPRPRPQASPRP: the “shrunken log2 fold change” value is -0.187.

For RRIRARPPRLPRPRPRPQIQPRP, the “shrunken log2 fold change” value was 0.503.

On to RRIRIRPPRLPRPRPRPMGLPRP, for which the “shrunken log2 fold change” value is -0.0686.

As to RRIRQRPPRLPRPRPRPQNKPRP, the “shrunken log2 fold change” value is -0.22.

RRIRCRPPRLPRPRPRPCTYPRP: the “shrunken log2 fold change” value is -1.19.

Turning to RRIRWRPPRLPRPRPRPFHFPRP, the “shrunken log2 fold change” value was -0.451.

Turning to RRIRLRPPRLPRPRPRPWCKPRP, the “shrunken log2 fold change” value is -0.213.

Consider RRIRNRPPRLPRPRPRPCGDPRP, for which the “shrunken log2 fold change” value came out at 0.0293.

With RRIRTRPPRLPRPRPRPNDPPRP, the “shrunken log2 fold change” value was -0.149.

Regarding RRIRERPPRLPRPRPRPEEMPRP, the “shrunken log2 fold change” value turned out to be 0.0169.

Take RRIRNRPPRLPRPRPRPRWRPRP: the “shrunken log2 fold change” value was found to be 0.623.

Regarding RRIRPRPPRLPRPRPRPRFCPRP, the “shrunken log2 fold change” value was 0.225.

For the sequence RRIRERPPRLPRPRPRPYTWPRP, the “shrunken log2 fold change” value was -0.161.

On to RRIRDRPPRLPRPRPRPADCPRP, for which the “shrunken log2 fold change” value was -0.0601.

In the case of RRIRMRPPRLPRPRPRPEAVPRP, the “shrunken log2 fold change” value is 3.72.

Consider RRIRQRPPRLPRPRPRPATYPRP, for which the “shrunken log2 fold change” value was -0.287.

On to RRIRSRPPRLPRPRPRPSLFPRP, for which the “shrunken log2 fold change” value worked out at 0.0853.

In the case of RRIRLRPPRLPRPRPRPGNGPRP, the “shrunken log2 fold change” value turned out to be 0.0164.

RRIRQRPPRLPRPRPRPCGSPRP: the “shrunken log2 fold change” value is -0.000687.

In the case of RRIRQRPPRLPRPRPRPGMCPRP, the “shrunken log2 fold change” value stood at 0.0819.

Turning to RRIRHRPPRLPRPRPRPSFSPRP, the “shrunken log2 fold change” value is -0.483.

Regarding RRIRRRPPRLPRPRPRPWMCPRP, the “shrunken log2 fold change” value came to 0.214.

With RRIRYRPPRLPRPRPRPSKDPRP, the “shrunken log2 fold change” value is -0.642.

On to RRIRWRPPRLPRPRPRPITWPRP, for which the “shrunken log2 fold change” value turned out to be 0.0636.

As to RRIRNRPPRLPRPRPRPDRMPRP, the “shrunken log2 fold change” value is -0.282.

In the case of RRIRTRPPRLPRPRPRPGKEPRP, the “shrunken log2 fold change” value is -0.00507.

With RRIRRRPPRLPRPRPRPRWGPRP, the “shrunken log2 fold change” value was found to be 0.533.

In the case of RRIRIRPPRLPRPRPRPTESPRP, the “shrunken log2 fold change” value is -0.433.

As to RRIRVRPPRLPRPRPRPPNCPRP, the “shrunken log2 fold change” value is 0.194.

Regarding RRIRQRPPRLPRPRPRPGGNPRP, the “shrunken log2 fold change” value is -0.0842.

Consider RRIRFRPPRLPRPRPRPYPGPRP, for which the “shrunken log2 fold change” value was found to be 0.00399.

In the case of RRIRLRPPRLPRPRPRPKTTPRP, the “shrunken log2 fold change” value was found to be 0.196.

For RRIRERPPRLPRPRPRPDADPRP, the “shrunken log2 fold change” value is 0.0155.

With RRIRSRPPRLPRPRPRPQRMPRP, the “shrunken log2 fold change” value was -0.133.

For the sequence RRIRKRPPRLPRPRPRPVTKPRP, the “shrunken log2 fold change” value amounted to 0.063.

Regarding RRIRYRPPRLPRPRPRPVTGPRP, the “shrunken log2 fold change” value is -0.213.

As to RRIRQRPPRLPRPRPRPIKIPRP, the “shrunken log2 fold change” value is -0.0595.

With RRIRSRPPRLPRPRPRPFNQPRP, the “shrunken log2 fold change” value is -0.295.

With RRIRCRPPRLPRPRPRPHFGPRP, the “shrunken log2 fold change” value was -0.219.

With RRIRYRPPRLPRPRPRPTFKPRP, the “shrunken log2 fold change” value is -0.445.

As to RRIRRRPPRLPRPRPRPPVFPRP, the “shrunken log2 fold change” value was determined as 0.55.

As to RRIRHRPPRLPRPRPRPSTDPRP, the “shrunken log2 fold change” value is -0.406.

Consider RRIRRRPPRLPRPRPRPLVCPRP, for which the “shrunken log2 fold change” value worked out at 0.177.

In the case of RRIRRRPPRLPRPRPRPSSEPRP, the “shrunken log2 fold change” value is -0.322.

Consider RRIRPRPPRLPRPRPRPCTNPRP, for which the “shrunken log2 fold change” value is -0.0219.

Turning to RRIRKRPPRLPRPRPRPVQIPRP, the “shrunken log2 fold change” value was found to be 0.13.

As to RRIRVRPPRLPRPRPRPYLWPRP, the “shrunken log2 fold change” value is -0.269.

Turning to RRIRQRPPRLPRPRPRPHRKPRP, the “shrunken log2 fold change” value was -0.227.

On to RRIRCRPPRLPRPRPRPRIVPRP, for which the “shrunken log2 fold change” value came to 0.0193.

In the case of RRIRYRPPRLPRPRPRPYCTPRP, the “shrunken log2 fold change” value is -1.54.

Take RRIRRRPPRLPRPRPRPRLQPRP: the “shrunken log2 fold change” value worked out at 0.349.

With RRIRIRPPRLPRPRPRPQIGPRP, the “shrunken log2 fold change” value is -0.451.

RRIRERPPRLPRPRPRPIDNPRP: the “shrunken log2 fold change” value is -0.108.

Consider RRIRLRPPRLPRPRPRPPHQPRP, for which the “shrunken log2 fold change” value was found to be 0.168.

For RRIRQRPPRLPRPRPRPVMNPRP, the “shrunken log2 fold change” value was 0.0954.

With RRIRRRPPRLPRPRPRPKKIPRP, the “shrunken log2 fold change” value was 0.106.

In the case of RRIRMRPPRLPRPRPRPQKYPRP, the “shrunken log2 fold change” value amounted to 0.136.

For RRIRQRPPRLPRPRPRPCMCPRP, the “shrunken log2 fold change” value was -0.147.

Consider RRIRWRPPRLPRPRPRPWGSPRP, for which the “shrunken log2 fold change” value was 0.0134.

Turning to RRIRNRPPRLPRPRPRPRYSPRP, the “shrunken log2 fold change” value was -0.309.

As for RRIRFRPPRLPRPRPRPGSPPRP, the “shrunken log2 fold change” value amounted to 0.206.

As to RRIRLRPPRLPRPRPRPDTKPRP, the “shrunken log2 fold change” value is -0.122.

Take RRIRFRPPRLPRPRPRPSQRPRP: the “shrunken log2 fold change” value worked out at 0.384.

RRIRSRPPRLPRPRPRPYSQPRP: the “shrunken log2 fold change” value was -0.0604.

With RRIRGRPPRLPRPRPRPSVGPRP, the “shrunken log2 fold change” value stood at 0.333.

Take RRIRNRPPRLPRPRPRPFLAPRP: the “shrunken log2 fold change” value was -0.164.

With RRIRKRPPRLPRPRPRPHRFPRP, the “shrunken log2 fold change” value is -0.0599.

On to RRIRCRPPRLPRPRPRPQQYPRP, for which the “shrunken log2 fold change” value is -0.709.

Turning to RRIRFRPPRLPRPRPRPQYCPRP, the “shrunken log2 fold change” value is -0.943.

On to RRIRKRPPRLPRPRPRPKDYPRP, for which the “shrunken log2 fold change” value was -0.0531.

As to RRIRSRPPRLPRPRPRPGVFPRP, the “shrunken log2 fold change” value is 0.146.

Turning to RRIRARPPRLPRPRPRPFPTPRP, the “shrunken log2 fold change” value was determined as 0.311.

In the case of RRIRWRPPRLPRPRPRPECDPRP, the “shrunken log2 fold change” value came to 1.93.

As to RRIRPRPPRLPRPRPRPRVPPRP, the “shrunken log2 fold change” value worked out at 0.342.

As for RRIRVRPPRLPRPRPRPHAGPRP, the “shrunken log2 fold change” value is 0.108.

For RRIRCRPPRLPRPRPRPIIMPRP, the “shrunken log2 fold change” value is -0.888.

In the case of RRIRDRPPRLPRPRPRPCAIPRP, the “shrunken log2 fold change” value was 0.029.

On to RRIRMRPPRLPRPRPRPGRFPRP, for which the “shrunken log2 fold change” value stood at 0.0931.
